The target of the test is B/Victoria/504/2000 HA ectodomain (residues 1–530), soluble, His-tagged (influenza B virus B/Victoria/504/2000). Description: negative stain EM reconstruction.

Consider one substance from paper PMC5253702.

What is called stoichiometry N is a count of units in the complex or per binding partner.

For “B/Victoria/504/2000 HA ectodomain (residues 1–530), soluble, His-tagged (domain or fragment)”, the stoichiometry N was found to be 3.
